Assay results published in patent publication US20170145086A1 (VISTERRA, published 2017).

Key:
[1] = biological target: human TNFα (TNFSF2; Adipogen) (human, UniProt P01375 85-233, limits assumed); test: indirect ELISA, cytokine coated
Experimental: (§1) Selected anti-APRIL antibodies were evaluated for potential cross-reactivity with other members of the TNFa superfamily (TNFSF) family of cytokines, including: human TNFα (TNFSF2; Adipogen), human […] (TNFSF4, Adipogen), human FasL (TNFSF6, Adipogen), human TRAIL (TNFSF10, Adipogen), human RANKL (TNFSF11; Adipogen), human Tweak (TNFSF12; Abcam), human and mouse BAFF (TNFSF13B, AB Biosciences and Adipogen, respectively), and human LIGHT (TNFSF14, Adipogen). These cytokines share variable degree of sequence as well as higher order structural homologies. Among them, BAFF appears to be the most closely related to APRIL, with 29% identity and 53% amino acid sequence similarity.
(§2) Binding was evaluated by an indirect ELISA protocol using similar methods described for evaluation of APRIL binding; cytokines were immobilized to ELISA plate at 50 ng per well and then exposed to a solution of each of the test antibodies at a fixed concentration of 10 μg/ml Anti-human or anti-mouse Ig-HRP polyclonal antibody conjugates (Jackson Laboratories) were used for detection of antibody binding. The results presented in FIG. 36 indicated eleven of the twelve antibodies tested in this assay to specifically bind APRIL with no measurable cross-reactivity with the other TNFSF members substantially above assay background.

[2] = biological target: T1, human FasL (TNFSF6, Adipogen) (human, UniProt P48023 103-281, limits assumed); test: indirect ELISA, cytokine coated
T1 sequence (looked up): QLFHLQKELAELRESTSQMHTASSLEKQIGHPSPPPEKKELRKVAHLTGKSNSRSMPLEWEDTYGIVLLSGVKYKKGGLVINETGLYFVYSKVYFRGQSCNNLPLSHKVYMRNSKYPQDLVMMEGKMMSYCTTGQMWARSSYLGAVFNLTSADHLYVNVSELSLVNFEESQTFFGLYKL
Experimental: as §1, §2

[3] = biological target: human TRAIL (TNFSF10, Adipogen) (human, UniProt P50591 95-281, limits assumed); test: indirect ELISA, cytokine coated
human TRAIL (TNFSF10, Adipogen), sequence (P50591 95-281 limits assumed): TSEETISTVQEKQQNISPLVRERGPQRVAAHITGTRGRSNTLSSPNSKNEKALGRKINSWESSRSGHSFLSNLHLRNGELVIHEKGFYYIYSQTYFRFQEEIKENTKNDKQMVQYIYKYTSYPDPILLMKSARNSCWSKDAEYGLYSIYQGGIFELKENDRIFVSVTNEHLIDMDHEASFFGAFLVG
Experimental: as §1, §2

[4] = biological target: T2, human RANKL (TNFSF11; Adipogen) (human, UniProt O14788 152-317, limits assumed); test: indirect ELISA, cytokine coated
T2 sequence (looked up): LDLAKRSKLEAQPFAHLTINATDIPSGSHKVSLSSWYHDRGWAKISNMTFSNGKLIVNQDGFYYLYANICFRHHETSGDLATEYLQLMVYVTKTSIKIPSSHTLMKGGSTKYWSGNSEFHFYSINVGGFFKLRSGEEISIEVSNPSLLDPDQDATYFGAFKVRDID
Experimental: as §1, §2

[5] = biological target: human BAFF (TNFSF13B, AB Biosciences) (human, UniProt Q9Y275 134-285, limits assumed); test: indirect ELISA, cytokine coated
human BAFF (TNFSF13B, AB Biosciences), sequence (Q9Y275 134-285 limits assumed): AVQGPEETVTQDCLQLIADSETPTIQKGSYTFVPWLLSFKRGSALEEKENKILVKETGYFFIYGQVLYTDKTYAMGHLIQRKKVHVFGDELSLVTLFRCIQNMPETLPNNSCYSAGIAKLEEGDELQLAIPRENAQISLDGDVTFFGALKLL
Experimental: as §1, §2

[6] = biological target: mouse BAFF (TNFSF13B, Adipogen) (mouse, UniProt Q9WU72 127-309, limits assumed); test: indirect ELISA, cytokine coated
mouse BAFF (TNFSF13B, Adipogen), sequence (Q9WU72 127-309 limits assumed): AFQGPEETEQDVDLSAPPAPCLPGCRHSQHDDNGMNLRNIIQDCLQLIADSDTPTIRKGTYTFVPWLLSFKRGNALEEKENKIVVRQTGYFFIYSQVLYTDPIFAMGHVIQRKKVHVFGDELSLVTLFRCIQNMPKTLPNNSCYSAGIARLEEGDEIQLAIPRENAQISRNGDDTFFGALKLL
Experimental: as §1, §2

[7] = biological target: human LIGHT (TNFSF14, Adipogen) (human, UniProt O43557 89-240, limits assumed); test: indirect ELISA, cytokine coated
human LIGHT (TNFSF14, Adipogen), sequence (O43557 89-240 limits assumed): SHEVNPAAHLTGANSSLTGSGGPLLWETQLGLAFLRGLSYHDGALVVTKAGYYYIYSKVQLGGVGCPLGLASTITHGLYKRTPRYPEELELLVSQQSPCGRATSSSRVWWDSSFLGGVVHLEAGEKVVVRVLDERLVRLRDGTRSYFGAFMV
Experimental: as §1, §2

[8] = biological target: T3, HA-GCN4 hAPRIL (amino acid residues 105-250) (human, UniProt O75888 105-250); test: blocking ELISA; blocked: human APRIL binding to human BCMA-Fc; set-up: concentration or dose not given beside the values
T3 construct: Bought (R&D Systems); also called HA-tagged GCN4 human APRIL; HA-GCN4-huAPRIL; not shown: N-terminal HA tag; GCN4 isoleucine zipper oligomerization domain
T3 sequence: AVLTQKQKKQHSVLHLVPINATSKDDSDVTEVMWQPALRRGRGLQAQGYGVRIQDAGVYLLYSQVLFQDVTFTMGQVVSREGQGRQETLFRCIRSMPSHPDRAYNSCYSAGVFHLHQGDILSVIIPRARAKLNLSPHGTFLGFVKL
Experimental: (§3) FIGS. 19A-19B depict the antibody inhibition of APRIL binding to TNFSF receptors TACI (FIG. 19A) and BCMA (FIG. 19B). Assay is based on blocking ELISA using recombinant human APRIL (R&D Systems) and Human TACI-Fc. Inhibition was analyzed by non-linear regression using a four parameter fit.
(§4) Recombinant TACI-Fc or BCMA-Fc was coated on 96 well plates in 0.1 M carbonate-bicarbonate buffer (pH 9.6), overnight at 4° C. Plates were washed three times with 1×PBST (PBS+0.025% Tween 20) followed by blocking with 1% BSA in 1×PBS, 37° C. for 1 hour. All subsequent wash steps were carried out with 1×PBST. To assess antibody blocking, either 15 ng/mL or 50 ng/mL HA-GCN4-huAPRIL was preincubated with varying antibody concentrations ranging from 0.03-30 μg/mL in binding buffer comprised of 1% BSA and 0.025% Tween-20 in 1×PBS. Preincubation was carried out at 30° C. for 1 hour with mixing. Antibody-APRIL premix with 50 ng/mL APRIL or 15 ng/mL APRIL was then added to TACI-Fc coated or BCMA-Fc coated plates, respectively, and incubated for an additional hour at 30° C. HA-tagged APRIL binding to either receptor was quantified using a goat polyclonal anti-HA tag-HRP antibody (Abcam) added at a 1:10000 dilution followed by colorimetric development using 100 μl/well of freshly prepared TMB substrate (KPL) carried out for up to 30 minutes at room temperature before quenching enzymatic reaction by the addition of 1N sulfuric acid. ELISA signal was quantified by absorbance at 450 nm. ELISA data was analyzed by non-linear regression. IC₅₀ values were calculated based on a 4 parameter fit of antibody titration curves. […] Non-blocking antibodies Aprly-1 or Aprly-5 (Enzo Biosciences) were used as negative controls. Mouse specific, blocking antibody aprily-1-1 (Adipogen) was generally used as a positive control in experiments using mouse APRIL (HA-GCN4-mAPRIL).

[9] = biological target: T3, HA-GCN4 hAPRIL (amino acid residues …); test: blocking ELISA; blocked: human APRIL binding to human TACI-Fc; set-up: concentration or dose not given beside the values
Experimental: as §3, §4

human TNFα (TNFSF2; Adipogen), sequence (P01375 85-233 limits assumed): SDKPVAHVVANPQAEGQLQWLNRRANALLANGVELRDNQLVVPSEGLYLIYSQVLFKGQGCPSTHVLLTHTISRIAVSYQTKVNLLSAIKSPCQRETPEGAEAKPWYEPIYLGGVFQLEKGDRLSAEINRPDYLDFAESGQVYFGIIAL

B1: 4237 (antibody, V domains shown)
VH: QAHLKESGPGLVAPSQSLSITCTVSGFSLTDYDVHWVRQSPGKGLEWLGVIWNDGSTDYNTAFISRLTISKDNSKSQVFFKMNSLQADDTAIYYCARNWYGGYWFAYWGQGTLVTVSA
VL: DIQMTQSPASLSASAGETVTITCRSSENIYSYLAWYQQKQGKSPQLLVYNANALAEGVPSRFSGSGSVTQFSLKINSLQPEDFGSYYCQHHYGTPFTFGSGTKLEIK
notes: also called monoclonal antibody 4237
[1]
  binding result: no binding (tested: 10 µg/ml (p-1128))
[2]
  binding result: no binding (tested: 10 µg/ml (p-1128))
[3]
  binding result: no binding (tested: 10 µg/ml (p-1128))
[4]
  binding result: no binding (tested: 10 µg/ml (p-1128))
[5]
  binding result: no binding (tested: 10 µg/ml (p-1128))
[6]
  binding result: no binding (tested: 10 µg/ml (p-1128))
[7]
  binding result: no binding (tested: 10 µg/ml (p-1128))
[8]
  % Inhibition: 93%
[9]
  % Inhibition: 95%
